# Measured values from patent US20260265360A1, “USE OF ANTI-FAM19A5 ANTAGONISTS FOR TREATING HEARING DISORDERS” (NEURACLE SCIENCE CO., LTD., priority 2023, published 2026).
# Columns and labels:
# [1] = test system: human FAM19A5 protein epitope fragments F1-F6; assay: Epitope mapping: binding to BSA-conjugated FAM19A5 epitope fragments F1-F6 (Western blot / ELISA); details: for binding to epitope fragment F5: Western blot and/or ELISA
# Procedure: (§1) Overlapping peptide fragments (F1-F6 epitope fragments; SEQ ID NOs: 178-183) of the human FAM19A5 protein were synthesized and conjugated to BSA (SEQ ID NOs: 322-327). Binding of the different anti-FAM19A5 antibodies to the BSA-conjugated peptide fragments F1-F6 was determined by Western blot analysis or ELISA assay. For the Western blot analysis, BSA-conjugated FAM19A5 fragments F1-F6 were separated by SDS polyacrylamide gel electrophoresis and transferred to a nitrocellulose membrane by the standard procedure. The membrane was incubated with the anti-FAM19A5 antibody (e.g., 1-65, […], 1-65-scFv-rabbit Fc-SSS), and the antigen-antibody complexes were detected with the appropriate secondary antibody conjugated with horse-radish peroxidase (anti-rabbit IgG (Fc specific)-HRP, 1:4000 dilution). For the ELISA assay, the following protocol was used. FAM19A5 fragment F1-F6 (diluted to 1 μg/mL in 50 mM carbonate buffer (Biosesang) or to 20 μg/mL for high concentration analysis) were used to coat the wells of 96-well immuno plates (Thermo Scientific) (100 μL/well) overnight at 4° C. and then subsequently washed twice in 1×PBS. The plates were then blocked with the blocking buffer (100 μL/well) for 1 hour at room temperature. During the 1-hour incubation, the relavant anti-FAM19A5 antibodies were diluted to 1 μg/mL (or 20 μg/mL for high concentration analysis) in the diluent buffer. Once the plates were washed (2× using 1×PBS), the diluted anti-FAM19A5 antibodies were added to the appropriate wells, and the plates were incubated at room temperature for 1 hour. The plates were subsequently washed for a total of five times using the washing buffer. Next, the ODP substrate (prepared by dissolving one ODP tablet (O-phenylenediamine Dihydrochloride, Thermo) into 9 mL of sterilized deionized water and 1 mL of 10× stable Peroxide Stable buffer (Theromo)) was added to each of the wells, and the color change reaction was allowed to occur for 10 minutes. This reaction was stopped by adding 100 μL of 2N H2SO4 (Daejung) to the wells. The absorption value of each of the wells was detected at 492 nm using a 96-well microplate reader (Molecular Device).
# [2] = test system: FAM19A5 epitope fragment F5 mutant peptides F5-1 to F5-8; assay: ELISA binding to mutant F5 peptide fragments (alanine substitution); design: species or system human
# Procedure: as §1
# Next, to identify the specific amino acid residues within the eptitope fragment F5 that the 1-65 and P2-C12 antibodies bind to, different amino acid residues of the F5 fragment were replaced with alanine as shown in Table 11 (below). The mutated residues are bolded and underlined. The binding affinity of the indicated anti-FAM19A5 antibodies were measured using an ELISA assay as described above.
# FAM19A5 mutants M1 to M8 [3] = biological target: T1, FAM19A5 mutants M1 to M8 (Homo sapiens, UniProt Q7Z5A7); assay: Epitope mapping ELISA with FAM19A5 mutants M1-M8; assay type: binding
# T1 construct: made in house; host or cells: phage display with helper phage
# T1 sequence (Q7Z5A7 with tags, fused parts or gaps isoform Q7Z5A7-2, change not shown): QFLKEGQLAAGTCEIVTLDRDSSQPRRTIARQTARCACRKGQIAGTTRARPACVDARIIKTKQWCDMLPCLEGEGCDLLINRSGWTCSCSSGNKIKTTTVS
# Procedure: (§2) To further characterize the binding epitopes of the anti-FAM19A5 antibodies disclosed in the present disclosure, the amino acid sequences for the different FAM19 family members (i.e., FAM19A1-5) were aligned. […] The amino acid sequences of these regions were replaced with the consensus sequence of the corresponding regions for the FAM19A1-4 proteins. See Table 13 (the mutated amino acid residues are bolded and underlined).
# (§3) The mutant FAM19A5-expressing phages were prepared as follows. To prepare the media for phage culture, 55.6 ml of 2M Glucose (D-(+)-Glucose, Sigma), 5 mL of 1M MgCl2 (Magnesium chloride, Junsei) 1 mL of 34 mg/mL chloramphenicol (Sigma) were added to 2×YT media. Colonies obtained through mono-phage ELISA were selected and placed in 5 mL of prepared media (2×YT-GMC) to be cultured for 16 hours at 37° C. with shaking incubator (VS-8480, Vision). 100 μL of each culture was transferred to 10 mL 2×YT-GMC individually which were cultured at 37° C. in the incubator until detection value at O.D. 600 nm reached 0.5. Once detection value has reached 0.5 at O.D. 600 nm, 5 mL of each culture were obtained as samples to be infected. Following sample preparation, 50 μL of […] was added to individual samples then incubated at 37° C. without shaking for 30 minutes and with shaking for additional 30 minutes. Individual cultures were centrifuged for 15 minutes at 3,850 rpm using Micro centrifuge (Micro12, Hanil). The supernatants of centrifuged cultures were removed to be kept separate and replaced with 5 mL of 2×YT media containing 1 mL of IM IPTG (AG Scientific), 5 mL of 1M MgCl2.1 ml of 70 μg/μL kanamycin (Biopure) and 1 mL of Chloramphenicol. The resulting pellets were dispersed thoroughly in newly added media followed by incubation at 30° C. for 16 hours with stirring.
# FAM19A5 mutants M1 to M8 [4] = biological target: T2, FAM19A5 mutants M1 to M8 (Homo sapiens, UniProt Q7Z5A7, D98Q/K92L/K94R/L100E/P101L/Q95W/T93Q); assay: Epitope mapping ELISA with FAM19A5 mutants M1-M8; assay type: binding
# T2 construct: made in house; host or cells: phage display with helper phage
# T2 sequence (Q7Z5A7 26-125 isoform Q7Z5A7-2 K85L/T86Q/K87R/Q88W/D91Q/L93E/P94L): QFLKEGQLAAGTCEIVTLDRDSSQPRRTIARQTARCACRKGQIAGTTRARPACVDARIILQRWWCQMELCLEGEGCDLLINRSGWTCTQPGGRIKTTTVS
# Procedure: as §2, §3
# FAM19A5 mutants M1 to M8 [5] = biological target: T3, FAM19A5 mutants M1 to M8 (Homo sapiens, UniProt Q7Z5A7, D109K/G107E/I112P/L110T/N113D/R114N); assay: Epitope mapping ELISA with FAM19A5 mutants M1-M8; assay type: binding
# T3 construct: made in house; host or cells: phage display with helper phage
# T3 sequence (Q7Z5A7 26-125 isoform Q7Z5A7-2 G100E/D102K/L103T/I105P/N106D/R107N): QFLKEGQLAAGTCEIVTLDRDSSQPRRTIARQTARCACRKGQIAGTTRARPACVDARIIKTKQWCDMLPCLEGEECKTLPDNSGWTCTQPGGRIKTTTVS
# Procedure: as §2, §3
# FAM19A5 antigen = FAM19A5 antigen (Homo sapiens, UniProt Q7Z5A7); assay: Cross-competition two-site sandwich ELISA; assay type: binding; details: antibodies 1-65, P2-A03, P2-F11, 13B4, 2-13, 3-2; cross-competition = S/N ratio lower than 2
# FAM19A5 antigen, sequence (Q7Z5A7 44-132): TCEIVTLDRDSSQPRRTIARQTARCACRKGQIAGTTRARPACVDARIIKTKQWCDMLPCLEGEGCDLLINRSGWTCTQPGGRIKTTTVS
# Procedure: The term “S/N” refers to the signal to noise ratio, which is measured as follows: [O.D. of 10 ng/ml antigen]/[O.D. of 0 ng/ml antigen].
# Next, a two-site sandwich ELISA was used as described below to assess whether the different anti-FAM19A5 antibodies with similar binding epitopes cross-compete with each other.
# First, the indicated anti-FAM19A5 antibodies were diluted in 1×PBS to a concentration of 10 μg/mL. The diluted anti-FAM19A5 antibodies (10 μg/mL in 1×PBS) (“capture antibody”) were used to coat the 96-well plates (100 μL/well) at 37° C. for approximately 1 hour. After the incubation, the plates were washed with the washing buffer (0.01% Tween-20/PBS; also called 0.01% PBST) for a total of five washes, blocked with the blocking solution (5% BSA/PBS; also called 5% PBSA) (250 μL/well) for one hour at 37° C., and then washed again. Next, 100 μg/mL of the FAM19A5 antigen (diluted in PBS containing 5% BSA, 0.01% Tween-20; also called 5% PBSAT; “diluent buffer) was added to each of the wells, and the 96-well plates were incubated for 2 hours at 37° C. After the incubations, the plates were washed using 0.01% PBST for a total of five washes. After the final wash, the indicated biotinylated anti-FAM19A5 antibodies (“detection antibody”) (diluted to lug/mL in 5% PBSAT) were added to the relevant wells (100 μL volume) and the plates were incubated for an additional 1 hour at 37° C. Afterwards, the plates were washed again with 0.01% PBST (five total washes). Next, 100 μL of the diluted (1/2000 in 5% PBSAT) Streptavidin-HRP (1 mg/mL, Sigma, USA) was added to the wells, and the plates were incubated for 30 minutes at room temperature. The plates were then washed and treated with 100 μL of the TMB substrate ([…], Thermo Fisher Scientific). After an additional 30-minute incubation at room temperature, the color change reaction was induced by the addition of the TMB substrate. This reaction was stopped using 50 μL of sulfuric acid (2N H2SO4), and the extent of color change was detected via absorption at 450 nm with reference wavelength at 620 nm using a 96 well microplate reader (Molecular Device).
Molecule,binding to epitope fragment F5 [1],"binding to F5 fragment with D13, L14, I16 or R18 mutated to alanine ([2]; numbering per SEQ ID NO: 275)","binding to F5 mutant peptides #1, 5, 6, and 7 ([2]; similar affinity)",binding to FAM19A5 mutant M8 (FAM19A5 mutants M1 to M8 [3]),binding to FAM19A5 mutant M6 (FAM19A5 mutants M1 to M8 [4]),binding to FAM19A5 mutant M7 (FAM19A5 mutants M1 to M8 [5]),cross-competition with the other anti-FAM19A5 antibodies (FAM19A5 antigen),binding to the other fragments (F1-F4 and F6) ([1]; ELISA),"binding to F5 mutant peptides #1, 6, and 8 [2]","binding to F5 mutant peptides #2, 3, 4, 5, and 7 [2]"
"1-65: anti-FAM19A5 antibody; VH SEQ ID NO: 37, VL SEQ ID NO: 41 (antibody, V domains shown, 1-65 VH; 1-65 VL) VH: AVTLDESGGGLQTPGGALSLVCKASGFTFSSYQMGWVRQAPGKGLEWVGVINKSGSDTSYGSAVKGRATISRDNGQSTVRLQLNNLRAEDTGTYFCAKGSASYITAATIDAWGHGTEVIVSS VL: ALTQPSSVSANPGETVKITCSGGGSSGYGYGWYQQKSPSSAPLTVIYWNDKRPSDIPSRFSGSKSGSTHTLTITGVQAEDEAVYFCGNDDYSSDSGYVGVFGAGTTLTVL",bound strongly,no longer able to bind,able to bind,failed to bind,failed to bind,failed to bind,cross-competed with one another,–,–,–
"13B4: anti-FAM19A5 antibody; VH SEQ ID NO: 156, VL SEQ ID NO: 167 (antibody, V domains shown, 13B4 VH; 13B4 VL) VH: QVQLQESGPGLVKPSGTLSLNCAVSGGSISSSNWWSWVRQPPGKGLEWIGEIYHGGTTNYNPSLKGRVTMSVDKTKNQFSLRLSSVTAVDTAVYYCARWQLVGGLDVWGQGTTVTVSS VL: SYELTQPLSVSVSPGQTASITCSGDKLGNVYASWYQQKPGQSPTLVIYQDNKRPSGIPERFSGSNSGKTATLTISGTQALDEADYYCQAWDSSTAVFGGGTKLTVL",–,–,–,failed to bind,failed to bind,reduced binding,cross-competed with one another,–,–,–
"P2-C12: anti-FAM19A5 antibody; VH SEQ ID NO: 155, VL SEQ ID NO: 166 (antibody, V domains shown, P2-C12 VH; P2-C12 VL) VH: QSLEESGGRLVTPGTPLTLTCTVSGFSLSTYAVTWVRQAPGKGLEWIGYINWRGGTSYANWAKGRFTISKTSSTTVDLKMTSPTTEDTATYFCARDASSGAAFGSYGMDPWGPGTLVTVSS VL: ELDMTQTPSSVSAAVGGTVTIKCQASQSISSYLSWYQQKPGQPPKLLIYEASKLASGVPSRFSGSGYGTEFTLTISDLECADAATYYCQQGYSSTNVWNAFGGGTNVEIK",strongly,–,–,strongly binding,failed to bind,–,–,not significantly,"not to mutant peptides #1, 6, and 8",high binding
